Measurements reported in patent publication US20090298765A1 (Takeda / Millennium, published 2009).
Non-standard residues stand in square brackets, D forms with d. No end group written: not given here. *: point of attachment. Phe(4-F) = N[C@@H](Cc1ccc(F)cc1)C(=O)O; Cyclohexanecarbonyl = O=C(C1CCCCC1)*; Arg(Me) = CNC(=N)NCCC[C@H](N)C(=O)O; 4Pal = N[C@@H](Cc1ccncc1)C(=O)O; d3Pal = N[C@H](Cc1cccnc1)C(=O)O; d4Pal = N[C@H](Cc1ccncc1)C(=O)O; Cha = N[C@@H](CC1CCCCC1)C(=O)O; amidino = N=C(N)*; azaGly = NNC(=O)O

Tests used:
[1] = target: T1, human OT7T175 (metastin receptor) (human, UniProt Q969F8 1-398); assay: cell-based or functional assay
[2] = target: T1, human OT7T175 (metastin receptor); assay: competition with Cy-5 metastin (40-54) on hOT7T175-CHO cells, FMAT
Procedure: hOT7T175-Expressed CHO cells were cultured in MEM-α medium (nucleic acid-free) containing 10% dialyzed serum. The medium was removed and the adhered cells were washed with PBS. Then, PBS containing 5 mM EDTA was added and the cells were scraped from a flask with a cell scraper.
To each well of a 96-Well Black Clear Bottom Microplate (Applied Biosystems, Inc.), 10 μL of assay buffer containing 1% dimethylsulfoxide was added to examine total binding, 10 μL of 10 μM non-labeled peptide (having the same amino acid sequence as that of labeled one) solution diluted with assay buffer to examine non-specific binding, and 10 μL of a test compound diluted with assay buffer to examine a binding inhibition activity of the test compound, and furthermore, 90 μL each of the cell suspension was dispensed to each well. […] Specific binding is calculated as non-specific binding subtracted from total binding. The binding inhibition activity of a test compound is shown by a ratio of the value obtained by subtracting a measured value in presence of a test compound from the total binding to the specific binding.

[3] = target: T1, human OT7T175 (metastin receptor); assay: cell-based or functional assay; remark: listed apart in the source

T1 sequence (Q969F8 whole entry L364H): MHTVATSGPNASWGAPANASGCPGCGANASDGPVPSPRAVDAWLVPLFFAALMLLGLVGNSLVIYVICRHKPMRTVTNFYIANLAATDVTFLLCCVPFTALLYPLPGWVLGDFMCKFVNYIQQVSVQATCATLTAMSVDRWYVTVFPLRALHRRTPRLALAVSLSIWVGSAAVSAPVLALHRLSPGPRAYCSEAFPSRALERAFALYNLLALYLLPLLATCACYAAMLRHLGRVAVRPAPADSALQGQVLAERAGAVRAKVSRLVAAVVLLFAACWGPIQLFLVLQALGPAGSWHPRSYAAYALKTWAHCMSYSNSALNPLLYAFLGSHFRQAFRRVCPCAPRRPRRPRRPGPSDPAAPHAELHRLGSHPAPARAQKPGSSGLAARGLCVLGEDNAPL

B1: [D-Tyr1,D-Asn2,Thr3,AzaGly7,Arg(Me)9,Phe(4F)10]MS10 (peptide)
peptide: [dY][dN]TNSF[azaGly]L[Arg(Me)][Phe(4-F)]-NH2
modifications: N-terminus assumed
SMILES: CNC(=N)NCCC[C@H](NC(=O)[C@H](CC(C)C)NC(=O)NNC(=O)[C@H](Cc1ccccc1)NC(=O)[C@H](CO)NC(=O)[C@H](CC(N)=O)NC(=O)[C@@H](NC(=O)[C@@H](CC(N)=O)NC(=O)[C@H](N)Cc1ccc(O)cc1)[C@@H](C)O)C(=O)N[C@@H](Cc1ccc(F)cc1)C(N)=O
notes: also called Compound No. 316
- Ca ion level-increasing activity (FLIPR) [1]: 1 x Metastin (1-54)
- IC50 [2]: 26 nM

Binder: [dY][dN]TNSF[azaGly]L[Arg(Me)]F-NH2 (also called Compound No. 284) [[D-Tyr1,D-Asn2,Thr3,AzaGly7,Arg(Me)9]MS10]
- Ca ion level-increasing activity (FLIPR) [1]: 1 x Metastin (1-54)
- IC50 [2]: 34 nM

B2: [D-Tyr1,D-His2,AzaGly7,Arg(Me)9]MS10 (peptide)
peptide: [dY][dH]WNSF[azaGly]L[Arg(Me)]F-NH2
modifications: N-terminus assumed
SMILES: CNC(=N)NCCC[C@H](NC(=O)[C@H](CC(C)C)NC(=O)NNC(=O)[C@H](Cc1ccccc1)NC(=O)[C@H](CO)NC(=O)[C@H](CC(N)=O)NC(=O)[C@H](Cc1c[nH]c2ccccc12)NC(=O)[C@@H](Cc1c[nH]cn1)NC(=O)[C@H](N)Cc1ccc(O)cc1)C(=O)N[C@@H](Cc1ccccc1)C(N)=O
notes: also called Compound No. 288
- Ca ion level-increasing activity (FLIPR) [1]: 1 x Metastin (1-54)
- IC50 [2]: 0.072 nM

B3: [D-Tyr1,D-Ser2,AzaGly7,Arg(Me)9]MS10 (peptide)
peptide: [dY][dS]WNSF[azaGly]L[Arg(Me)]F-NH2
modifications: N-terminus assumed
SMILES: CNC(=N)NCCC[C@H](NC(=O)[C@H](CC(C)C)NC(=O)NNC(=O)[C@H](Cc1ccccc1)NC(=O)[C@H](CO)NC(=O)[C@H](CC(N)=O)NC(=O)[C@H](Cc1c[nH]c2ccccc12)NC(=O)[C@@H](CO)NC(=O)[C@H](N)Cc1ccc(O)cc1)C(=O)N[C@@H](Cc1ccccc1)C(N)=O
notes: also called Compound No. 287
- Ca ion level-increasing activity (FLIPR) [1]: 2 x Metastin (1-54)
- IC50 [2]: 2.3 nM

Binder: {n‑hexanoyl}-NSF[azaGly]L[Arg(Me)]F-NH2 (also called Compound No. 277) [des(1-3)-n-Hexanoyl-[AzaGly7,Arg(Me)9]MS10]
- Ca ion level-increasing activity (FLIPR) [1]: 2 x Metastin (1-54)
- IC50 [2]: 54 nM

B4: [D-Pya(3)1,AzaGly7,Arg(Me)9]MS10 (peptide)
peptide: [d3Pal]NWNSF[azaGly]L[Arg(Me)]F-NH2
modifications: N-terminus assumed
SMILES: CNC(=N)NCCC[C@H](NC(=O)[C@H](CC(C)C)NC(=O)NNC(=O)[C@H](Cc1ccccc1)NC(=O)[C@H](CO)NC(=O)[C@H](CC(N)=O)NC(=O)[C@H](Cc1c[nH]c2ccccc12)NC(=O)[C@H](CC(N)=O)NC(=O)[C@H](N)Cc1cccnc1)C(=O)N[C@@H](Cc1ccccc1)C(N)=O
notes: also called Compound No. 258
- Ca ion level-increasing activity (FLIPR) [1]: 2 x Metastin (1-54)
- IC50 [2]: 90 nM

Binder: [dY]NWNSFGLRF (not fully specified (C-terminus); also: C-terminal thioamide (CSNH2)) [[10Ψ,CSNH,D-Tyr1]MS10]
- Ca ion level-increasing activity (FLIPR, 40 s) [3]: 1.5 EC50/MS10 EC50

Binder: [dY]N[d4Pal]NSF[azaGly]L[Arg(Me)]F-NH2 (also called Compound No. 302) [[D-Tyr1,D-Pya(4)3,AzaGly7,Arg(Me)9]MS10]
- Ca ion level-increasing activity (FLIPR) [1]: 2 x Metastin (1-54)
- IC50 [2]: 7.7 nM

Binder: {4‑(3-indolyl)butyryl}-NSF[azaGly]L[Arg(Me)]F-NH2 (also called Compound No. 267) [des(1-3)-4-(3-Indolyl)butyryl-[AzaGly7,Arg(Me)9]MS10]
- Ca ion level-increasing activity (FLIPR) [1]: 2 x Metastin (1-54)
- IC50 [2]: 360 nM

B5: des(1)-[D-Pya(3)2,Phe3,AzaGly7,Arg(Me)9]MS10 (peptide)
peptide: [d3Pal]FNSF[azaGly]L[Arg(Me)]F-NH2
modifications: N-terminus assumed
SMILES: CNC(=N)NCCC[C@H](NC(=O)[C@H](CC(C)C)NC(=O)NNC(=O)[C@H](Cc1ccccc1)NC(=O)[C@H](CO)NC(=O)[C@H](CC(N)=O)NC(=O)[C@H](Cc1ccccc1)NC(=O)[C@H](N)Cc1cccnc1)C(=O)N[C@@H](Cc1ccccc1)C(N)=O
notes: also called Compound No. 256
- Ca ion level-increasing activity (FLIPR) [1]: 1 x Metastin (1-54)
- IC50 [2]: 22 nM

B6: des(1)-[D-Pya(3)2,AzaGly7,Arg(Me)9]MS10 (peptide)
peptide: [d3Pal]WNSF[azaGly]L[Arg(Me)]F-NH2
notes: also called Compound No. 289; [D-Pya(3)2,AzaGly7,Arg(Me)9]MS10-(2-10)
- Ca ion level-increasing activity (FLIPR) [1]: 1 x Metastin (1-54)
- IC50 [2]: 8.4 nM

B7: Endo-Phe5a-[D-Tyr1,Phe3,AzaGly7,Arg(Me)9]MS10 (peptide)
peptide: [dY]NFNSFF[azaGly]L[Arg(Me)]F-NH2
modifications: N-terminus assumed
SMILES: CNC(=N)NCCC[C@H](NC(=O)[C@H](CC(C)C)NC(=O)NNC(=O)[C@H](Cc1ccccc1)NC(=O)[C@H](Cc1ccccc1)NC(=O)[C@H](CO)NC(=O)[C@H](CC(N)=O)NC(=O)[C@H](Cc1ccccc1)NC(=O)[C@H](CC(N)=O)NC(=O)[C@H](N)Cc1ccc(O)cc1)C(=O)N[C@@H](Cc1ccccc1)C(N)=O
notes: printed in three-letter code: D-Tyr-Asn-Phe-Asn-Ser-Phe-Phe-AzaGly-Leu-Arg(Me)-Phe-NH2; also called Compound No. 270
- Ca ion level-increasing activity (FLIPR) [1]: 1 x Metastin (1-54)
- IC50 [2]: 15 nM

Binder: Y[dN][4Pal]NSF[azaGly]L[Arg(Me)]F-NH2 (also called Compound No. 304) [[D-Asn2,Pya(4)3,AzaGly7,Arg(Me)9]MS10]
- Ca ion level-increasing activity (FLIPR) [1]: 3 x Metastin (1-54)
- IC50 [2]: 5 nM

B8: [D-Pya(4)1,D-Asn2,Cha3,AzaGly7,Arg(Me)9]MS10 (peptide)
peptide: [d4Pal][dN][Cha]NSF[azaGly]L[Arg(Me)]F-NH2
modifications: N-terminus assumed
SMILES: CNC(=N)NCCC[C@H](NC(=O)[C@H](CC(C)C)NC(=O)NNC(=O)[C@H](Cc1ccccc1)NC(=O)[C@H](CO)NC(=O)[C@H](CC(N)=O)NC(=O)[C@H](CC1CCCCC1)NC(=O)[C@@H](CC(N)=O)NC(=O)[C@H](N)Cc1ccncc1)C(=O)N[C@@H](Cc1ccccc1)C(N)=O
notes: also called Compound No. 306
- Ca ion level-increasing activity (FLIPR) [1]: 2 x Metastin (1-54)
- IC50 [2]: 4.4 nM

Binder: YNWNSXGLRF (D-Tyr1; Pya(2)6; Arg(Me)9; C-terminal amide, also called Compound No. 281) [[D-Tyr1,Pya(2)6,Arg(Me)9]MS10]
- Ca ion level-increasing activity (FLIPR) [1]: 0.5 x Metastin (1-54)
- IC50 [2]: 230 nM

B9: [D-Tyr1,D-Asn2,Pya(4)3,AzaGly7,Arg(Me)9,Phe(4F)10]MS10 (peptide)
peptide: [dY][dN][4Pal]NSF[azaGly]L[Arg(Me)][Phe(4-F)]-NH2
modifications: N-terminus assumed
SMILES: CNC(=N)NCCC[C@H](NC(=O)[C@H](CC(C)C)NC(=O)NNC(=O)[C@H](Cc1ccccc1)NC(=O)[C@H](CO)NC(=O)[C@H](CC(N)=O)NC(=O)[C@H](Cc1ccncc1)NC(=O)[C@@H](CC(N)=O)NC(=O)[C@H](N)Cc1ccc(O)cc1)C(=O)N[C@@H](Cc1ccc(F)cc1)C(N)=O
notes: also called Compound No. 317
- Ca ion level-increasing activity (FLIPR) [1]: 1 x Metastin (1-54)
- IC50 [2]: 2.1 nM

B10: des(1-2)-Amidino-[AzaGly7,Arg(Me)9]MS10 (peptide)
peptide: amidino-WNSF[azaGly]L[Arg(Me)]F-NH2
SMILES: CNC(=N)NCCC[C@H](NC(=O)[C@H](CC(C)C)NC(=O)NNC(=O)[C@H](Cc1ccccc1)NC(=O)[C@H](CO)NC(=O)[C@H](CC(N)=O)NC(=O)[C@H](Cc1c[nH]c2ccccc12)NC(=N)N)C(=O)N[C@@H](Cc1ccccc1)C(N)=O
notes: also called Compound No. 273
- Ca ion level-increasing activity (FLIPR) [1]: 5 x Metastin (1-54)
- IC50 [2]: 300 nM

B11: des(1-2)-Acetyl-[AzaGly7,Arg(Me)9]MS10 (peptide)
peptide: Ac-WNSF[azaGly]L[Arg(Me)]F-NH2
SMILES: CNC(=N)NCCC[C@H](NC(=O)[C@H](CC(C)C)NC(=O)NNC(=O)[C@H](Cc1ccccc1)NC(=O)[C@H](CO)NC(=O)[C@H](CC(N)=O)NC(=O)[C@H](Cc1c[nH]c2ccccc12)NC(C)=O)C(=O)N[C@@H](Cc1ccccc1)C(N)=O
notes: also called Compound No. 272
- Ca ion level-increasing activity (FLIPR) [1]: 2 x Metastin (1-54)
- IC50 [2]: 540 nM

Binder: Y[dN]WNSFGLRF-NH2 [[D-Asn2]MS10]
- Ca ion level-increasing activity (FLIPR, 40 s) [3]: 2.7 EC50/MS10 EC50

B12: des(1-2)-[AzaGly7,Arg(Me)9]MS10 (peptide)
peptide: WNSF[azaGly]LR(Me)F-NH2
modifications: N-terminus assumed
SMILES: CNC(=N)NCCC[C@H](NC(=O)[C@H](CC(C)C)NC(=O)NNC(=O)[C@H](Cc1ccccc1)NC(=O)[C@H](CO)NC(=O)[C@H](CC(N)=O)NC(=O)[C@@H](N)Cc1c[nH]c2ccccc12)C(=O)N[C@@H](Cc1ccccc1)C(N)=O
notes: also called Compound No. 271
- Ca ion level-increasing activity (FLIPR) [1]: 1 x Metastin (1-54)
- IC50 [2]: 120 nM

Binder: Cyclohexanecarbonyl-NSF[azaGly]L[Arg(Me)]F-NH2 (also called Compound No. 278) [des(1-3)-Cyclohexanecarbonyl-[AzaGly7,Arg(Me)9]MS10]
- Ca ion level-increasing activity (FLIPR) [1]: 2 x Metastin (1-54)
- IC50 [2]: 110 nM

Binder: {4‑imidazoleacetyl}-NSF[azaGly]L[Arg(Me)]F-NH2 (also called Compound No. 323) [des(1-3)-4-Imidazoleacetyl-[AzaGly7,Arg(Me)9]MS10]
- Ca ion level-increasing activity (FLIPR) [1]: 1 x Metastin (1-54)
- IC50 [2]: 280 nM

B13: [D-Pya(3)1,D-Asn2,Cha3,AzaGly7,Arg(Me)9]MS10 (peptide)
peptide: [d3Pal][dN][Cha]NSF[azaGly]L[Arg(Me)]F-NH2
modifications: N-terminus assumed
SMILES: CNC(=N)NCCC[C@H](NC(=O)[C@H](CC(C)C)NC(=O)NNC(=O)[C@H](Cc1ccccc1)NC(=O)[C@H](CO)NC(=O)[C@H](CC(N)=O)NC(=O)[C@H](CC1CCCCC1)NC(=O)[C@@H](CC(N)=O)NC(=O)[C@H](N)Cc1cccnc1)C(=O)N[C@@H](Cc1ccccc1)C(N)=O
notes: also called Compound No. 290
- Ca ion level-increasing activity (FLIPR) [1]: 1 x Metastin (1-54)
- IC50 [2]: 1.4 nM

B14: [D-Pya(3)1,D-Tyr2,Cha3,AzaGly7,Arg(Me)9]MS10 (peptide)
peptide: [d3Pal][dY][Cha]NSF[azaGly]L[Arg(Me)]F-NH2
modifications: N-terminus assumed
SMILES: CNC(=N)NCCC[C@H](NC(=O)[C@H](CC(C)C)NC(=O)NNC(=O)[C@H](Cc1ccccc1)NC(=O)[C@H](CO)NC(=O)[C@H](CC(N)=O)NC(=O)[C@H](CC1CCCCC1)NC(=O)[C@@H](Cc1ccc(O)cc1)NC(=O)[C@H](N)Cc1cccnc1)C(=O)N[C@@H](Cc1ccccc1)C(N)=O
notes: also called Compound No. 291
- Ca ion level-increasing activity (FLIPR) [1]: 2 x Metastin (1-54)
- IC50 [2]: 0.41 nM
